Like-named read-outs stand apart in the source and are kept apart here. Ends that are not written are not given here.
What was measured:
[1] = freshly radiolabelled
[2] = set-up: species or system tight-skin (Tsk) mouse; conditions: mouse, in vivo
Description: Biodistribution was also studied in a lung disease model which used tight-skin mice with genetic emphysema. The tight-skin (Tsk) mouse is a genetic mutant caused by a dominant gene deficiency of serum anti-elastase. Heterozygous (Tsk/+) animals show multiple skin connective tissue abnormalities resembling scleroderma as well as an increased growth of cartilage, bone, and small tendons with hyperplasia of the tendon sheaths. The Tsk trait is associated with progressive pulmonary emphysema and development of right ventricular hypertrophy, as well as with lung collagen changes. These mice, as well as genetic control mice (pallid), were obtained from The Jackson Laboratory (Bar Harbor, ME). The relative localisation of ^99mTc-IKVAV-peptide of Example 4 at all time points examined (10, 30, and 120 minutes post-injection), was decreased in the lungs of animals with emphysema relative to paired control animals.

[3] = set-up: species or system adult female Fischer 344 rats; conditions: rat, in vivo
Protocol: The clearance rates of the ^99mTc-IKVAV-containing peptide of Example 4 was evaluated in adult female Fischer 344 rats at 2 hours after injection. Each experimental group was composed of three animals. Each animal was anaesthetised with ketamine and the bile duct and bladder were cannulated. Blood was collected over various periods of time from the jugular vein.

[4] = set-up: species or system mice; conditions: mouse, in vivo
Protocol: Some studies involved pre-incubation of the ^99mTc-IKVAV-containing peptide in whole blood prior to injection and determination of biodistribution. In these studies, whole human blood was obtained from a healthy adult male donor and collected into Vacutainer tubes containing EDTA. After mixing to insure proper dissolution of the EDTA, approximately 2.5 ml of the whole blood was removed and mixed with 0.25 ml of ^99mTc-peptide. The mixture was allowed to incubate 30 minutes at room temperature. After 30 minutes, aliquots of 0.1 ml were injected into the tail vein of the mice. The amount of radioactivity in the circulation for ^99mTc-IKVAV-containing peptide pre-incubated in whole blood was higher than in animals receiving ^99mTc-IKVAV-containing peptide without incubation in blood.

[5] = Clearance rates of 99mTc-YIGSR-peptide (plasma, urine, bile; cannulated animals); format: in vivo, adult female Sprague-Dawley rats
Protocol: The clearance rates of the ^99mTc-YIGSR-peptide of Example 12 was evaluated in adult female Sprague-Dawley rats at 2 hours after injection. Each experimental group was composed of three animals. Each animal was anaesthetised with ketamine and the bile duct and bladder were cannulated. Blood was collected over various periods of time from the jugular vein. […] In biodistribution studies, the highest amount of radioactivity was found in the kidneys, and is consistent with the rat clearance data. No major accumulation of radioactivity was found in any organ examined (other than kidney), and at later times (2 and 4 hours post injection) no re-distribution of the radiolabel was noted.

platelets = test: In vitro binding of 99mTc-YIGSR-containing peptide to platelets; format: cell-based, human; conditions: 90 minutes, approximately 10^7 platelets, 2 to 200 µg of radiolabelled peptide
Protocol: (§1) In other experiments, the peptide of Example 12, labelled as in Example 13, was used for in vitro binding studies. In these studies, the ^99mTc-YIGSR-containing peptide was incubated for 90 minutes with either 0.5 ml of whole blood clots, using from 0.4 to 50 µg of radiolabelled peptide, or with approximately 10^7 platelets, using from 2 to 200 µg of radiolabelled peptide.

[6] = Biodistribution of 99mTc-YIGSR-peptide after tail vein injection; format: in vivo, adult female Swiss-Webster mice; conditions: biodistribution studies
Protocol: The biodistribution of the ^99mTc-YIGSR-peptide of Example 12 was evaluated in adult female Swiss-Webster mice (approximately 19 g) at selected times (10, 30, and 120 minutes) after injection into the tail vein. Each experimental group was composed of at least five animals, with each animal receiving 0.1 ml containing 5 µg of peptide (1 µCi/µg). Animals were sacrificed by Halothane overdose, and selected organs dissected, weighed, and associated radioactivity determined. Data were analysed using a computer program specifically designed for ^99mTc-labelled preparations. The percent dose per organ for blood, bone, and muscle were calculated assuming 7, 8.2, and 40% of total body weight, respectively, for these tissues.

thromboembolism = test: Diagnostic imaging of thrombosis in a patient (gamma scintigraphy or SPECT); format: in vivo; conditions: kit of Examples 12, 18, 19, or 20, i.v., imaged at 30 minute intervals
Protocol: A kit of Examples 12, 18, 19, or 20 is used in to localise thromboembolism in a patient. After radiolabelling with ^99mTc as in Example 13, the ^99mTc-YIGSR-peptide is injected intravenously. Starting immediately upon injection, the patient is imaged, using conventional gamma scintigraphy or SPECT imaging, and is imaged at 30 minute intervals thereafter.

whole blood clots = test: In vitro binding of 99mTc-YIGSR-containing peptide to whole blood clots; format: cell-based, human; conditions: 90 minutes, 0.5 ml of whole blood clots, 0.4 to 50 µg of radiolabelled peptide
Protocol: as §1

[7] = Biodistribution after pre-incubation of 99mTc-YIGSR-peptide in whole human blood; format: in vivo, mice; conditions: pre-incubated 30 minutes in whole human blood, compared with no incubation in blood
Protocol: Some studies involved pre-incubation of the ^99mTc-YIGSR-peptide in whole blood prior to injection and determination of biodistribution (Table 7). In these studies, whole human blood was obtained from a healthy adult donor and collected into Vacutainer tubes containing EDTA. After mixing to insure proper dissolution of the EDTA, approximately 2.5 ml of the whole blood was removed and mixed with 0.25 ml of ^99mTc-YIGSR-peptide. The mixture was allowed to incubate 30 minutes at room temperature. After 30 minutes, aliquots of 0.1 ml were injected into the tail vein of the mice. The amount of radioactivity in the circulation for ^99mTc-YIGSR-peptide of Example 12 pre-incubated in whole blood was similar to that in animals receiving ^99mTc-YIGSR-peptide without incubation in blood.

Substance: CSRARKQAASIKVAVSADR [^99mTc-IKVAV-containing peptide]
- particles under a phase contrast microscope [1]: No particles were visible
- relative localisation in the lungs [2]: decreased
- bile clearance [3]: 0.9 ± 0.3%
- clearance rate from the plasma [3]: 2.4 mL/min
- injected dose cleared through urine [3]: 10.8 ± 4.9%
- amount of radioactivity in the circulation [4]: higher
- lung uptake [4]: significantly decreased

Substance: H-CDPGYIGSR [^99mTc-YIGSR-peptide]
- bile clearance ([5]; at two hours): 6.9 ± 0.3%
- injected doses cleared through urine ([5]; at two hours): 31.2 ± 9.1%
- clearance rate from the plasma ([5]; rats): 2.6 mL/min
- binding to platelets (platelets): dose-response relationship
- organ with the highest amount of radioactivity [6]: kidneys
- appearance of sites of thromboembolism by scintigraphy (thromboembolism): photon-rich image locations
- binding to whole blood clots (whole blood clots): dose-response relationship
- amount of radioactivity in the circulation [7]: similar

Reference: patent EP0629133B1, “PEPTIDE-METAL ION PHARMACEUTICAL APPLICATIONS” (Rhomed, Incorporated, priority 1992, dated 1993)
